± gives the uncertainty stated by the source.
Assay: protein stability index of a GFP-peptide fusion (yeast GPS) (PSI 1-4); higher = more stable; sorted into four equal gates, so the index is relative within each strain
How it was run: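 Plasmids isolated from each sorting gate were PCR-amplified and Illumina-sequenced, and barcodes assigned the reads to strains. The gates, four of equal size, were set by GFP/Cherry fluorescence ratio on mid-log cultures in leucine-free medium. These cultures were yeast carrying a pooled library of tiled 17-residue yeast protein peptides fused downstream of GFP on a plasmid that also expresses Cherry. The protein stability index is the sum of every gate's read frequency times its gate number.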

| Sequence | protein stability index (doa10∆) | protein stability index (pdr5∆) | protein stability index (san1∆) | protein stability index (ubr1∆) |
| --- | --- | --- | --- | --- |
| LSLKRTLTDILEDELYH [RPN4] | 3.11 ± 0.1 | 3.52 ± 0.11 | 3.47 ± 0.11 | 3.15 ± 0.11 |
| LSLMLESPNYCNALIHI [SRB4] | 1.52 ± 0.044 | 1.78 ± 0.035 | 1.72 ± 0.075 | 1.75 ± 0.035 |
| LSLTAFTKNEEKLLKEL [ITC1] | 2.24 ± 0.081 | 2.29 ± 0.072 | 2.29 ± 0.08 | 2.44 ± 0.26 |
| LSMRFQRETSGMIVISM [SRB8] | 2.13 ± 0.081 | 2.05 ± 0.062 | 1.54 ± 0.067 | 1.97 ± 0.058 |
| LSNFNADINLEESIRES [SIR3] | 3.16 ± 0.12 | 2.95 ± 0.12 | 2.75 ± 0.24 | 3.4 ± 0.094 |
| LSNLSKDIKANLSSNVN [YCS4] | 2.85 ± 0.05 | 3.03 ± 0.068 | 3.04 ± 0.06 | 2.93 ± 0.046 |
| LSNSNRFELHGDMTNSD [REC8] | 2.82 ± 0.14 | 3.13 ± 0.16 | 2.58 ± 0.14 | 2.7 ± 0.2 |
| LSQSSSYLETLTALGKE [MED2] | 3.12 ± 0.097 | 3.04 ± 0.099 | 2.66 ± 0.084 | 2.44 ± 0.07 |
| LSSAGAKSTVETFISSM [RIP1] | 3.08 ± 0.17 | 2.8 ± 0.13 | 2.86 ± 0.072 | 2.69 ± 0.11 |
| LSSGENRYAFSQPTNST [SMC4] | 3.22 ± 0.14 | 2.96 ± 0.11 | – | 2.85 ± 0.11 |
| LSSHSSTNSNSKPSTAS [RPN4] | 2.61 ± 0.087 | 2.71 ± 0.082 | 2.93 ± 0.059 | 2.86 ± 0.052 |
| LSTTPTKSNRRVSHSDT [SIR4] | – | 3.06 ± 0.26 | 3.33 ± 0.088 | 3.25 ± 0.2 |
| LSVEIGVLTDISSLIGG [NUT1] | 1.32 ± 0.13 | 1.95 ± 0.11 | 1.89 ± 0.25 | 2.18 ± 0.12 |
| LTAIPILLEPIYEVDIT [SNU114] | 2.24 ± 0.047 | 1.75 ± 0.041 | 1.94 ± 0.054 | 2.19 ± 0.038 |
| LTFHTLKKANIIYHTTF [YLR018C/POM34] | 1.9 ± 0.036 | 2.25 ± 0.038 | 2 ± 0.05 | 1.98 ± 0.028 |
| LTSSKSVIVSQFCAFDS [SIN4] | 2 ± 0.066 | 2.14 ± 0.06 | 1.98 ± 0.1 | 1.64 ± 0.066 |
| LTVSIKIALMNIPKPLN [RGR1] | 1.19 ± 0.044 | 1.43 ± 0.057 | 1.54 ± 0.059 | 1.66 ± 0.032 |
| LTYAQQQLNKQRQDFER [SNF6] | 2.49 ± 0.073 | 2.44 ± 0.071 | 2.17 ± 0.083 | 2.6 ± 0.038 |
| LVADGVFYAELNEFFTR [RPS3] | 3.2 ± 0.12 | 3.1 ± 0.12 | 3.08 ± 0.077 | 3.28 ± 0.078 |
| LVALKRNADELSSYQKK [PRE5] | 2.4 ± 0.048 | 2.43 ± 0.041 | 2.68 ± 0.043 | 2.28 ± 0.033 |
| LVDLVSHFSPDIKAAVD [ITC1] | 1.95 ± 0.063 | 1.99 ± 0.071 | 2.09 ± 0.076 | 2.54 ± 0.05 |
| LVEVEDEKIEAIKKKEK [SRB7] | 2.57 ± 0.16 | 3.09 ± 0.16 | 3.05 ± 0.094 | 3.39 ± 0.17 |
| LVGEYWEQLKITVVPVV [QCR6] | 1.38 ± 0.26 | – | – | – |
| LVGRLRKCETQKQWDDI [YCS4] | 2.21 ± 0.069 | 1.74 ± 0.057 | 1.53 ± 0.15 | 1.48 ± 0.072 |
| LVHTQIRKTPLAQKKAH [RPL3] | 1.37 ± 0.057 | 1.38 ± 0.049 | 1.65 ± 0.069 | 1.63 ± 0.034 |
| LVIKSGKYTLGYKSTVK [RPL30] | 2.75 ± 0.079 | 2.96 ± 0.061 | 2.5 ± 0.079 | 2.87 ± 0.05 |
